Earlier results, collected in publication PMC3760146.

Molecular target: Histone H4 K8ac peptide 1-12 (Homo sapiens) (UniProt P62805)
Assay: NMR titration

Question: For P/CAF bromodomain (from UniProt Q92831), which Kd is on record?
Answer: The Kd was 346 µM.
